In patent publication US20140235820A1, “METHODS AND COMPOSITIONS FOR MODULATING THE Wnt PATHWAY” (Genentech, Inc., priority 2010, published 2014):
Positions count from the first letter of the chain named. Numbers in names are those of the source. Entries after “also recorded” stand apart in the source; their conditions may differ. Values belong to the molecule of their own block, whether it stands above or below them.

What was measured:
LRP6 E3E4 = biological target: T1, LRP6 E3E4 (Homo sapiens, UniProt O75581); experiment: Biolayer interferometry binding to LRP6 E3E4
T1 construct: construct E3E4 amino acids E631-Q1253 of LPR6; made in house; host or cells: Tni insect cells (baculovirus, secreted)
T1 sequence (O75581 631-1253): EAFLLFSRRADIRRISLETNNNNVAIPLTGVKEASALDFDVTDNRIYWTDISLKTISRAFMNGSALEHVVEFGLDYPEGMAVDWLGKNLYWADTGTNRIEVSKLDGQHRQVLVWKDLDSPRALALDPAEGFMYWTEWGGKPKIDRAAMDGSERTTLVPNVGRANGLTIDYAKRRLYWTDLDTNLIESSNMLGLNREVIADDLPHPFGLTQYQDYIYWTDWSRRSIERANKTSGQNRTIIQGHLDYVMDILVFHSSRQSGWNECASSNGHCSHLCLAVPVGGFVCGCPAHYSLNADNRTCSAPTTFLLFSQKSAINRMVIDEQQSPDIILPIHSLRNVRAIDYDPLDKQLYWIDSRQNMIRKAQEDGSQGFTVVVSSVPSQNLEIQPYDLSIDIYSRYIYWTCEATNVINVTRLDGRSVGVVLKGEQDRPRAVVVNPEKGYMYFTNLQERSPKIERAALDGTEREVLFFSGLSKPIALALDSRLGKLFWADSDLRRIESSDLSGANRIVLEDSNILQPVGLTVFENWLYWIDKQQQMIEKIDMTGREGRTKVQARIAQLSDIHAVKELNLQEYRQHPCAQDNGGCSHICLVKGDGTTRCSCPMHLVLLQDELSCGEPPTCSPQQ
How it was run: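 Biotinylated human LRP6 ectodomain constructs (β-propeller-EGF units, e.g. E2 D235–E631, E1E2 A20–E631, E3E4 E631–Q1253) were loaded on streptavidin sensors in pH 8 Tris, 300 mM NaCl, 5% glycerol, 0.05% Triton X-100, then exposed to Dkks or sclerostin. Kd came from steady-state analysis, averaging ≥3 concentrations (R²>0.96).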

Wnt1-dependent signaling = experiment: Wnt-dependent TOPbrite luciferase reporter assay, cells transfected with Wnt1; type: cell-based; conditions: cells stably transfected with reporter, transiently with Wnt1
Protocol: FIG. 12. Induction of a Wnt/β-catenin reporter in the presence or absence of wild-type and mutant inhibitors. Cells were transfected by Wnt1 (binds to LRP6 E1E2). Dkk1 and sclerostin variants, or the control inhibitor Fz8 CRD, were used at the indicated doses.
Wnt signaling was assessed either in mouse fibroblast L-cells or in HEK293s cells. The luciferase reporter assay in 293 cells was performed as described (52). The mouse fibroblast L-cell imaging assay was conducted essentially as described(53). Cells were treated with Wnt3a, Fz8 CRD ((US Patent Publication 20080299136; (54), LRP6, or Dkk1, or combinations of these proteins, as indicated and processed after an additional 6 h at 37° C./5% CO2.
To test whether the observed effects on binding between purified proteins were relevant to cellular signaling, Dkk1 and sclerostin activities were tested further in a Wnt-dependent TOPbrite luciferase reporter assay (52). Cells stably transfected with reporter were transfected transiently with Wnt1. The Wnt-transfected cells were treated with purified Dkk1 or sclerostin variants, and the effect on reporter induction was measured (FIG. 12). […] This is consistent with earlier observations that Wnt1 belongs to a class of Wnts signaling through the E1E2 portion of to LRP5/6 (11, 52). The Dkk1 and sclerostin mutants show activities consistent with their binding to LRP6 (FIG. 12). Sclerostin Ile119Glu (“NXI” motif) is impaired relative to wild-type in its ability to inhibit Wnt1-driven signaling, as is Dkk1 Ile42Glu.

binding to LRP6 E3E4 (in words) (LRP6 E3E4): does not interact
Molecule: sclerostin: Sclerostin protein, Wnt pathway inhibitor, expressed in insect cells (LPNAIGR)
inhibition of Wnt1-dependent signaling (reporter induction) (Wnt1-dependent signaling): strong inhibition

Kd (LRP6 E3E4; steady state, read-out: affinity for LRP6 E3E4): 51 nM
Molecule: Dkk1: Dickkopf 1 protein, Wnt pathway inhibitor, expressed in insect cells (NSNAIKN)
inhibition of Wnt1-dependent signaling (reporter induction) (Wnt1-dependent signaling): strong inhibition

binding to LRP6 E3E4 (in words) (LRP6 E3E4): not to E3E4
B1: Dkk1 Ile42Glu (ligand, human, UniProt O94907 32-266, looked up)
chain: TLNSVLNSNAEKNLPPPLGGAAGHPGSAVSAAPGILYPGGNKYQTIDNYQPYPCAEDEECGTDEYCASPTRGGDAGVQICLACRKRRKRCMRHAMCCPGNYCKNGICVSSDQNHFRGEIEETITESFGNDHSTLDGYSRRTTLSSKMYHTKGQEGSVCLRSSDCASGLCCARHFWSKICKPVLKEGQVCTKHRRKGSHGLEIFQRCYCGEGLSCRIQKDHHQASNSSRLHTCQRH
notes: also called Dkk1 I42E
inhibition of Wnt1-dependent signaling (reporter induction) (Wnt1-dependent signaling): impaired

B2: Dkk1 K211E (ligand, human, UniProt O94907 32-266, looked up)
chain: B1 chain with E11I, K180E
notes: also called Dkk1 Lys211Glu
binding to LRP6 E3E4 (in words) (LRP6 E3E4): interfered with binding; also recorded: affect binding
inhibition of Wnt1-dependent signaling (reporter induction) (Wnt1-dependent signaling): efficiently inhibits
